This experiment has as its target stabilized pre-fusion RSV F glycoprotein (DS-Cav1) (respiratory syncytial virus (strain not stated)) (UniProt P03420). In words: crystal structure; RB1 Fab with DS-Cav1, complex purified by SEC; crystals in 100 mM Tris pH 8.5, 12% PEG 8000, 200 mM ammonium sulfate; 3.4 A. On the technique in general: SEC sorts molecules by how far they enter the pores of the column.

As usually defined, the stoichiometry N is the number of molecules, sites or subunits per partner or assembly.

In turn, “stabilized pre-fusion RSV F glycoprotein (DS-Cav1) (from UniProt P03420 137-513) (natural protein)” registered a stoichiometry N of 3.
